Test results published in patent US6790824B1, “Cytokines having neurotrophic activity” (Biopharm Gesellschaft zur biotechnologischen Entwicklung …, priority 1997, dated 2004).
“Also recorded” adds a separate entry of the source.

B1: BMP-12: rh BMP-12, bone morphogenetic protein (protein, UniProt Q7Z4P5 322-450, looked up)
Growth/differentiation factor …: TALAGTRTAQGSGGGAGRGHGRRGRSRCSRKPLHVDFKELGWDDWIIAPLDYEAYHCEGLCDFPLRSHLEPTNHAIIQTLLNSMAPDAAPASCCVPARLSPISILYIDAANNVVYKQYEDMVVEACGCR
B2: GDF-5: bone morphogenetic protein like molecule, member of the TGF-β superfamily (protein, UniProt P43026 382-501, looked up)
Growth/differentiation factor …: APLATRQGKRPSKNLKARCSRKALHVNFKDMGWDDWIIAPLEYEAFHCEGLCEFPLRSHLEPTNHAVIQTLMNSMDPESTPPTCCVPTRLSPISILFIDSANNVVYKQYEDMVVESCGCR
B3: CNTF: recombinant rat (rr) CNTF, established neurotrophic factor for CG neurons (protein, UniProt P20294 1-200, looked up)
Ciliary neurotrophic factor: MAFAEQTPLTLHRRDLCSRSIWLARKIRSDLTALMESYVKHQGLNKNINLDSVDGVPVASTDRWSEMTEAERLQENLQAYRTFQGMLTKLLEDQRVHFTPTEGDFHQAIHTLMLQVSAFAYQLEELMVLLEQKIPENEADGMPATVGDGGLFEKKLWGLKVLQELSQWTVRSIHDLRVISSHQMGISALESHYGAKDKQM
B4: neurotrophin-4 (protein, UniProt P34130 81-210, looked up)
Neurotrophin-4: GVSETAPASRRGELAVCDAVSGWVTDRRTAVDLRGREVEVLGEVPAAGGSPLRQYFFETRCKADNAEEGGPGAGGGGCRGVDRRHWVSECKAKQSYVRALTADAQGRVGWRWIRIDTACVCTLLSRTGRA
B5: oncostatin M (protein, UniProt P13725 26-221, looked up)
Oncostatin-M: AAIGSCSKEYRVLLGQLQKQTDLMQDTSRLLDPYIRIQGLDVPKLREHCRERPGAFPSEETLRGLGRRGFLQTLNATLGCVLHRLADLEQRLPKAQDLERSGLNIEDLEKLQMARPNILGLRNNIYCMAQLLDNSDTAEPTKAGRGASQPPTPTPASDAFQRKLEGCRFLHGYHRFMHSVGRVFSKWGESPNRSRR
B6: BMP-6: rh BMP-6, bone morphogenetic protein (protein, UniProt P22004 375-513, looked up)
Bone morphogenetic protein 6: SASSRRRQQSRNRSTQSQDVARVSSASDYNSSELKTACRKHELYVSFQDLGWQDWIIAPKGYAANYCDGECSFPLNAHMNATNHAIVQTLVHLMNPEYVPKPCCAPTKLNAISVLYFDDNSNVILKKYRNMVVRACGCH
B7: BMP-7: rh BMP-7, bone morphogenetic protein (protein, UniProt P18075 293-431, looked up)
Bone morphogenetic protein 7: STGSKQRSQNRSKTPKNQEALRMANVAENSSSDQRQACKKHELYVSFRDLGWQDWIIAPEGYAAYYCEGECAFPLNSYMNATNHAIVQTLVHFINPETVPKPCCAPTQLNAISVLYFDDSSNVILKKYRNMVVRACGCH
B8: BMP-11: rh BMP-11, bone morphogenetic protein (protein, UniProt O95390 299-407, looked up)
Growth/differentiation factor …: NLGLDCDEHSSESRCCRYPLTVDFEAFGWDWIIAPKRYKANYCSGQCEYMFMQKYPHTHLVQQANPRGSAGPCCTPTKMSPINMLYFNDKQQIIYGKIPGMVVDRCGCS
B9: brain-derived neurotrophic factor (protein, UniProt P23560 19-247, looked up)
Neurotrophic factor BDNF …: APMKEANIRGQGGLAYPGVRTHGTLESVNGPKAGSRGLTSLADTFEHVIEELLDEDQKVRPNEENNKDADLYTSRVMLSSQVPLEPPLLFLLEEYKNYLDAANMSMRVRRHSDPARRGELSVCDSISEWVTAADKKTAVDMSGGTVTVLEKVPVSKGQLKQYFYETKCNPMGYTKEGCRGIDKRHWNSQCRTTQSYVRALTMDSKKRIGWRFIRIDTSCVCTLTIKRGR
B10: BMP-4: rh BMP-4, bone morphogenetic protein (protein, UniProt P12644 293-408, looked up)
Bone morphogenetic protein 4: SPKHHSQRARKKNKNCRRHSLYVDFSDVGWNDWIVAPPGYQAFYCHGDCPFPLADHLNSTNHAIVQTLVNSVNSSIPKACCVPTELSAISMLYLDEYDKVVLKNYQEMVVEGCGCR

Assays:
[1] = tested on: embryonic chicken dorsal root ganglia (DRG) neurons; experiment: Survival of dissociated embryonic chick dorsal root ganglia (DRG) neurons, 48 h, counting of surviving neurons; type: cell-based; conditions: for survival promoting effect of the single factor: factor added alone, dose-response; for survival of DRG neurons in combination with NGF: NGF 10 ng/ml (saturating); for survival of DRG neurons in combination with NT-3: NT-3 10 ng/ml (saturating); for survival effect as share of the (maximal) NGF effect: single factor; for effect on DRG neuron survival when added together with GDF-5: factor at saturating concentration plus GDF-5 20 ng/ml
Procedure: Dissociated cultures of embryonic chicken dorsal root ganglia (DRG) were generated as described in details by Krieglstein and Unsicker (Neurochem. Res., 21(7) (1996) 843-850). Briefly, DRGs from white Leghorn chick embryos (day 8) were dissected in Ca^2+-Mg^2+ free Hanks' balanced salt solution. After incubation in 0.08% trypsin for 15 min ganglia were dissociated by trituration. Cells were seeded in polyomithin-laminin coated 96-well microtiter plates (A/2 Costar) at a density of 1,200 cells/well. Growth factors were applied at the time of plating in a final volume of […] Dulbecco's Modified Eagle's Medium supplemented with 0.25% bovine serum albumin, N1 additives and 100 U/ml penicillin. As a positive control, nerve growth factor (NGF) was used at the saturating concentration of 5 ng/ml. After 48 h of incubation at 37° C. in a humidified atmosphere containing 5% CO2, cultures were fixed with 2.5% glutaraldehyde. Neuronal cells were identified by their phase-bright and neurite-bearing morphologies and counted within 30% of the total surface area using phase contrast microscopy. In the first set of experiments we tested the survival promoting effect of several growth factors of the bone morphogenetic protein family.
(§1) Embryonic chick ciliary (CG), dorsal root (DRG), and sympathetic (SG) ganglia at embryonic day(s) (E) 8, 10, and 12, were dissected, freed from nerve roots and connective tissue and collected in CME. Ganglia were incubated in trypsin (ICN), washed and dissociated by trituration using fire-polished Pasteur pipettes. Cultures were set up in 96-well microtiter plates (Costar, A/2), precoated with poly-L-ornithine and laminin at a density of 1,200-1,500 cells/well in DMEM supplemented with N1 additives, 0.25% BSA, and 0.1% PSN (DME/N1) and incubated at 37° C. in a 5% CO2 incubator.
(§2) At appropriate times (CG: 24 h, DRG: 48 h, SG: 72 h) cultures were fixed by addition of 2.5% glutardialdehyde in phosphate buffered saline (PBS). Numbers of surviving neurons were determined by direct counting of 30% of the surface area using phase contrast microscopy.
Dissociated cultures of embryonic chicken dorsal root ganglia (DRGs) were generated as described in details by Krieglstein and Unsicker (Dev. Brain. Rees. 93 (1996) 10-17). Briefly, DRGs were dissected in Ca^2+-Mg^2+ free Hank's balanced salt solution (CMF). After incubation in 0.08% trypsin (BioWhittaker) for 15 min, ganglia were dissociated by gentle trituration using fire-polished Pasteur pipettes. Cells in suspension (neuron/non-neuron ratio 1:2) were seeded in polyomithin-laminin coated 96-well microtiter plates (A/2 Costar) at a density of 1,200 cells/well. Growth factors were applied at the time of plating in a final volume of 50 μl Dulbecco's Modified Eagle's Medium supplemented with 0.25% bovine serum albumin, N1 additives (Bottenstein et al., Exp. Cell Res. 125 (1980) 183-190) and 100 U/ml penicillin. As a positive control, nerve growth factor (NGF) was used at the saturating concentration of 10 ng/ml. After 48 h of incubation at 37° C. in a humidified atmosphere containing 5% CO2, cultures were fixed with 2.5% glutaraldehyde in phosphate buffered saline (PBS). Neuronal cells were identified by their phase-bright and neurite-bearing morphologies and counted within 30% of the total surface area using phase contrast microscopy. All experiments were performed in at least triplicate in two independent experiments. Data are presented as mean±SEM. Statistical comparisons were made with student's double t-test, ANOVA and MicrocalOrigin software. Differences were considered statistically significant at *P<0.05, **P<0.01, **P<0.001.

[2] = tested on: chick ciliary ganglionic (CG) neurons; experiment: Survival of embryonic chick ciliary ganglionic (CG) neurons, 24 h, counting of surviving neurons; type: cell-based; conditions: for CG neuron survival with further addition of TGF-β: TGF-β 2.5 ng/ml, CNTF non-saturating, OSM, LIF, IL-6 at 10 ng/ml
Procedure: as §1, §2
Phosphatidylinositol-specific phospholipase C (PIPLC) is an enzyme that specifically cleaves glycosyl-phosphatidylinositol (GPI) linkages. Embryonic chick ciliary ganglionic neurons (E8) were isolated and seeded as described before. Neurons were incubated for 1 h at 37° C. with 1) 100 mU PIPLC or II) 100 mU PIPLC+2 ng/ml TGFβ or III) without enzyme and then growth factors were added. The number of surviving neurons was determined 24 h later.

Row | Molecule | survival promoting effect of the single factor ([1]; E8 chick DRG, 48 h) | survival of DRG neurons in combination with NGF ([1]; E8, 48 h) | survival of DRG neurons in combination with NT-3 ([1]; E8, 48 h) | survival effect as share of the (maximal) NGF effect ([1]; E8 chick DRG, 48 h) | also measured
1 | B1 | significant effect; also recorded: promoted the survival of a very small neuron population | significantly increased survival of DRG neurons beyond levels maintained by the single factors | significantly augmented the promoting effect of NT-3 |  | 
2 | B2 | promoted the survival of a very small neuron population | significantly increased survival of DRG neurons beyond levels maintained by the single factors | significantly augmented the promoting effect of NT-3 | about 20% | neuronal numbers, GDF-5 and NT-3 both at saturating concentrations ([1]; E8 chick DRG, 48 h): failed to increase neuronal numbers significantly above the levels of each single factor; increase in neuronal cell numbers ([1]; E8 chick DRG, 48 h, saturating concentration of 20 ng/ml, vs untreated): approximately two-fold; neuronal cell numbers, GDF-5 added to NGF ([1]; GDF-5 20 ng/ml plus NGF 5 ng/ml, E8, 48 h): significantly increased neuronal cell numbers above values obtained for each single factor; DRG neuron survival with addition of NT-3 ([1]; various concentrations of GDF-5 plus 2.5 ng/ml NT-3, E8, 48 h): significantly increased DRG neuron survival above the NT-3 level
3 | B3 |  |  |  |  | CG neuron survival with further addition of TGF-β [2]: clearly augmented the efficacy of a non-saturating concentration of CNTF
4 | B4 |  |  |  |  | effect on DRG neuron survival when added together with GDF-5 ([1]; E8, 48 h): synergistic or additive effects
5 | B5 |  |  |  |  | CG neuron survival with further addition of TGF-β [2]: did not increase the effects of these cytokines beyond background levels; support of CG neuron survival by the single cytokine ([2]; at 10 ng/ml, without TGF-β): did not support CG neurons
6 | B6 | significant effect |  |  |  | 
7 | B7 |  |  | significantly augmented the promoting effect of NT-3 | approximately 35% | 
8 | B8 | significant effect |  |  |  | 
9 | B9 |  |  |  |  | effect on DRG neuron survival when added together with GDF-5 ([1]; E8, 48 h): synergistic or additive effects
10 | B10 |  | significantly increased survival of DRG neurons beyond levels maintained by the single factors |  | approximately 35% | 
